Here are results for one molecule from patent US20180086841A1 (Merck Sharp & Dohme, published 2018).

The target of assay [1] is T1, Macaca mulatta CD27 (mmCD27) (Macaca mulatta (rhesus) / Macaca …, UniProt P26842 21-260 (human entry)).
T1 construct: also called Rhesus CD27; rhesus monkey CD27
T1 chain: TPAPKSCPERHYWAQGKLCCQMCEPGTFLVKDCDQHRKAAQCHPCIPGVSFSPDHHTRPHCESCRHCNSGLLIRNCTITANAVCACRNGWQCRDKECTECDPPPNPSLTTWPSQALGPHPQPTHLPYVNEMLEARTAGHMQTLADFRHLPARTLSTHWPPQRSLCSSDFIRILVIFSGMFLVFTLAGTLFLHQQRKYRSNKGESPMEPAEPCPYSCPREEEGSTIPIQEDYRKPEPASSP
Kind of assay: flow cytometry on transiently transfected CHO-K1 cells. (In general: Flow cytometry measures light scatter and fluorescence of single cells or particles in a stream.)

In a further assay the target is T2, human CD27 (human, UniProt P26842 21-260).
T2 construct: also called hCD27; HsCD27
Described as above.

Text for human CD27: HsCD27 and MmCD27 were expressed on CHO-K1 by transient transfection.

B1: hCD27.15-c4 (antibody, human IgG4 S228P, kappa, V domains shown)
VH: EVRLQQSGADLVKPGASVKLSCTASGFIIKATYMHWVRQRPEQGLEWIGRIDPANGETKYDPKFQVKATITADTSSSTAYLQLNSLTSDDTAVYYCARYAWYFDVWGAGTTVTVSS
VL: DIQMTQSPASLSASVGDTVTITCRASENIYSFLAWYHQKQGRSPQLLVYHAKTLAEGVPSRFSGSGSGTQFSLKINSLQAEDFGSYYCQHYYGSPLTFGAGTKLEVKR
notes: also called hCD27.15 (chimeric c-4); C4-hCD27.15 chimeric antibody
Turning to B1, the binding result was “no binding” in assay [1] and “binds” with human CD27.
